Measurements reported in patent US20230174670A1 (JIANGSU HENGRUI PHARMACEUTICALS, published 2023).

T1: human CD25 on cells (human, UniProt P01589 22-272)
T1 sequence (looked up): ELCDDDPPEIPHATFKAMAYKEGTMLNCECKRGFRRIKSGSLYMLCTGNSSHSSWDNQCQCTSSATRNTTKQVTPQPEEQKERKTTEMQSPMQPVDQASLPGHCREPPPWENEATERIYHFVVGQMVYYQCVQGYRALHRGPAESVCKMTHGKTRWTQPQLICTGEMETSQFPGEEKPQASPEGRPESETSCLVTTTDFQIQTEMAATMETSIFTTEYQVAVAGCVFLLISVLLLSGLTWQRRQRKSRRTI

T2: recombinant human CD25-His protein (human, UniProt P01589 22-213)
T2 construct: range 22-213; Purchased from Sino Biological Inc. Printed construct Met1-Cys213 includes the signal peptide
T2 sequence (looked up): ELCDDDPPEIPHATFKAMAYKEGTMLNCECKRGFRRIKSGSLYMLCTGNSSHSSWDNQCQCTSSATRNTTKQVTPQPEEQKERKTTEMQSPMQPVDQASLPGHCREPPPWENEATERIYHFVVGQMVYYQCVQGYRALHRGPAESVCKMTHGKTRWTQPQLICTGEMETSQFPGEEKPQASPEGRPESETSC

T3: recombinant monkey CD25-His protein (monkey (cynomolgus), UniProt H6WS54 1-213)
T3 construct: range 1-213; also called cynomolgus monkey (Cyno) CD25
T3 sequence: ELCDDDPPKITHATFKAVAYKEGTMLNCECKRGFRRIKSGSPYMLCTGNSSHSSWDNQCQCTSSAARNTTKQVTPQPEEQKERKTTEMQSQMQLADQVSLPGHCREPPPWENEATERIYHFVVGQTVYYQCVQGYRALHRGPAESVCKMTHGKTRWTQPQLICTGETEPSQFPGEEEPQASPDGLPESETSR


Key:
human CD25 on cells [1] = target: T1, human CD25 on cells; test: cell-based or functional assay
human CD25 on cells [2] = target: T1, human CD25 on cells; test: flow cytometry on SU-DHL-1 cells
Description: Since the lymphoma cell line SU-DHL-1 highly expresses CD25, the binding of chimeric anti-CD25 antibodies to SU-DHL-1 cells was determined by flow cytometry. SU-DHL-1 cells in logarithmic growth phase were selected, collected, washed with PBS, and centrifuged. Each well was plated with 100 μL of 2×10⁵ cells and centrifuged at 400 g for 5 min. The test antibodies at different concentrations were added, incubated on ice for 1 h, washed with PBS, and centrifuged at 400 g for 5 min.

[3] = target: T2, recombinant human CD25-His protein; test: ELISA, plate coated with human CD25-His
Description: (§1) The binding activity of the chimeric anti-CD25 antibody and the CD25 recombinant protein was assayed by ELISA. The 96-well plate was coated with human CD25-His/monkey CD25-His at a concentration of 1 g/mL at 50 μL/well. The unbound antigen was washed away with a washing solution (1×PBST). After washing, the plate was blocked with 1% BSA blocking solution prepared in 1×PBST at 37° C. for 1 h. After washing 3 times with the washing solution, the test chimeric antibodies at different dilution concentrations was added and incubated in an incubator at 37° C. for 1 h. After washing 3 times with the washing solution, 100 μL of goat anti-human IgG secondary antibody diluted at 1:5000 was added and incubated in an incubator at 37° C. for 0.5 h. The plate were washed, the TMB color developing solutions A and B were mixed in a 1:1 ratio for color development. After 15 min, the color development reaction was terminated with 1M hydrochloric acid, and the fluorescence value at 450 nm was measured.

[4] = target: T3, recombinant monkey CD25-His protein; test: ELISA, plate coated with monkey CD25-His
Description: as §1

Binder | ADCC activity, Multiple of maximum fluorescence value (vs. IgG) (human CD25 on cells [1]) | EC50 (human CD25 on cells [2]) | EC50 [3] | EC50 [4]
PR031 (antibody, human IgG1, kappa, V domains shown) VH: EVQLVQSGAEVKKPGASVKVSCKASGYTFTTYDINWMKQHPGKGLEWIGWIYPRDGSTKYNAKFKGKATLTEDTSANTAYMELSSLRSEDTAVYYCARERIYDGSFDYWGQGTTVTVSS VL: DIVMTQSPDSLAVSLGERATINCKSSQRLFNSRDQKNYLAWYQQKPGQPPKLLIYGASTRESGVPDRFSGSGSGTDFTLTISSLQAEDVAVYYCQNDHIYPLTFGQGTKLEIKR | 192 fold | – | – | –
7G7B6 (antibody, V domains shown) VH: EVQLVESGGDLVQPRGSLKLSCAASGFTFSSYGMSWVRQTPDKRLELVATINGYGDTTYYPDSVKGRFTISRDNAKNTLYLQMSSLKSEDTAMYFCARDRDYGNSYYYALDYWGQGTSVTVSS VL: QIVLSQSPAILSASPGERVTMTCRASSSVSFMHWLQQKPGSSPKPWIYATSNLASGVSARFSGSGSGTSYSLTITRVEAEDAATYYCQQWSSNPPAFGGGTKLEIK | 13.3 fold | – | – | –
cAb001 (antibody, V domains shown, also called mAb001/cAb001) VH: QVTLKESGPGILQPSQTLSLTCSFSGFSLNTFGMGVGWIRQPSGKGLEWLAHIWWDDDKYYNPALKSRLTISKDTSKNQVFLKIANVDTADTVTYYCARITTEVGNYDVWGMGTTVTVSS VL: EIVLTQSPALMAASPGEKVTITCSVSSGITSNNLHWYQQKSETSPKPWIYGTSNLASGVPIRFSGSGSGTSYSLTISSMEAEDAATYYCQQWSSYPFTFGSGTKLEIK | – | 180 pM | 228 pM | 399 pM
cAb029 (antibody, human IgG1, V domains shown, also called mAb029/cAb029) VH: QVTLKESGPGILQPSQTLSLTCSFSGFSLSTFGMGVGWIRQPSGKGLEWLAHIWWDDDEYYNPALKSRLTISKDTSKNQVFLKIANVDTADTATYYCTRIMLTTGYFDVWGTGTTVTVSS VL: EIVLTQSPALMAASPGEKVTITCTVSSGITSSNLHWYQQKSETSPKPWIYGTSNLASGVPVRFSGSGSGTSYSLTISSMEAEDAATYYCQQWSSYPFTFGSGTRLEIK | – | 119 pM | 166 pM | 114 pM
cAb002 (antibody, human IgG1, V domains shown, also called mAb002/cAb002) VH: QVTLKESGPGILQPSQTLSLTCSFSGFSLSTFGLGVGWIRQPSGKGLEWLAQIWWDDDEYYNPALKSRLTISKDTSRNQVFLKIANVDTGDTATYFCARMGDTYWYFDVWGTGTTVAVSS VL: EIVVTQSPALMAVSPGEKVTITCSLSSGITSSNLHWYQQKSETSPKPWIYGTSNLASGVPVRFSGSGSKTSYSLTISSMEAEDAATYYCQQWSSYPFTFGSGTKLEIK | – | 100 pM | 274 pM | 524 pM
cAb042 (antibody, human IgG1, V domains shown, also called mAb042/cAb042) VH: QVQLQQSGPELVKSGASVKLSCKASGYTFTTYDINWMKQRPGQGLEWIGWIYPRDGSTKYNAKFKGKATLTEDTSSNTAFMELHSLTSEDSAVYFCARERIYDGSFDYWGQGTTLTVSS VL: DIVMTQSPSSLSVSAGEKVSMRCKSSQRLFNSRDQKNYLAWYQQKPGQPPKLLIYGASTRESGVPDRFTGSGSGTDFTLTISSVQAEDLAVYYCQNDHIYPLTFGAGTKLELK | – | 501 pM | 224 pM | 349 pM
cAb006 (antibody, human IgG1, V domains shown, also called mAb006/cAb006) VH: QIQLQQSGAELMKPGASVKLSCKATGYTFTGHWIEWVKQRPGHGLEWVGEILPGSNKINYNEKFKGKATFTAETSSNTVYMQLSSLTTEDSAIYYCAGGGGPHWPFAFWGQGSLVTVSA VL: DIVLTQSPASLTVSLGQRATISCRASESVNVHGAHLMHWYQQKPGQPPKLLIYAASILESGVPARFSGSGSETDFTLNIHPVEEEDAATYFCQQTIEDPRTFGGGTKLEIK | – | 329 pM | 200 pM | 234 pM
PR058 (antibody, human IgG1, kappa, V domains shown) VH: EVQLVESGGGLVQPGGSLRLSCAASGFTFSSYAMSWVRQAPGKRLEWVATISEGGSYTYYPDNVKGRFTISRDNSKNTLYLQMNSLRAEDTAVYLCVRDNPWFAYWGQGTLVTVSS VL: DVLMTQSPLSLPVTPGEPASISCRSSQNIVHSNGNTYLEWFLQKPGQSPKLLIYKVSKRFSGVPDRFSGSGSGTDFTLKISRVEAEDVGVYYCFQGSHVPYTFGGGTKVEIKR | 386 fold | – | – | –
PR006 (antibody, human IgG1, kappa, V domains shown) VH: EVQLVQSGAEVKKPGASVKVSCKASGYTFTGHWIEWVRQAPGQGLEWMGEILPGSNKINYNEKFKGRVTFTADTSTSTVYMELSSLRSEDTAVYYCAGGGGPHWPFAFWGQGTLVTVSS VL: DIVMTQSPDSLAVSLGERATINCRASESVNVHGAHLMHWYQQKPGQPPKLLIYAASILESGVPDRFSGSGSGTDFTLTISSLQAEDVAVYYCQQTIEDPRTFGGGTKVEIKR | 239 fold | – | – | –
cAb037 (antibody, human IgG1, V domains shown, also called mAb037/cAb037) VH: QVRLQQSGPELVKPGASVQMSCKASGYTFTDYYINWVKQRPGQGLEWIAWIFPGNGNTYFNENFKDKATLSVDKFSSTAFMLLSSLTSEDSAVYFCARATYDHGGYWYFDVWGTGTTVTVSS VL: QIVLSQSPAILSASPGEKVTMTCRASSSVSHIHWYQQKPGSSPKPWIYATSNLASGVPGRFSGSGSGTSYSLTVSRVEAEDAATYYCQHWNSFTFGGGTELELK | – | 150 pM | 165 pM | 147 pM
PR071 (antibody, human IgG1, kappa, V domains shown) VH: EVQLVQSGSELKKPGASVKVSCKASGYTFTDYYINWVRQAPGQGLEWMAWIFPGNGNTYFNENFKDRVTLTADKFSSTAYMELSSLRSEDTAVYYCARATYDHGGYWYFDVWGQGTTVTVSS VL: EIVLSQSPATLSLSPGERATLSCRASSSVSHIHWYQQKPGSSPKPWIYATSNLASGVPGRFSGSGSGTSYSLTVSRVEAEDAATYYCQHWNSFTFGGGTKVEIKR | 322 fold | – | – | –
cAb028 (antibody, human IgG1, V domains shown, also called mAb028/cAb028) VH: EVQLQQSGAELVRPGASVKLSCTASGFNIKNDYVHWVKQRPEQGLEWIGYIDPDNGDTEYASKFLGKATITADTSSNTAYLQLSSLTSEGTAVYYCTTDDTSYGMFACWGLGTLVTVSA VL: DVLMTQTPLSLPVSLGDQASISCRSSQSIVHSNGNTYLEWYLQKPGQSPKLLIYKVSNRFSGVPDRFSGSGSGTDFTLKISRVEAEDLGVYYCFQGSHVPWTFGGGTKLEIK | – | 132 pM | 344 pM | 230 pM
cAb046 (antibody, human IgG1, V domains shown, also called mAb046/cAb046) VH: EVQLVESGGGLVKPGGSLKLSCAASGFTFSSYAMSWVRQTPEKRLEWVATISEGGSYTYYPDNVKGRFTISRDNARNNLYLQMSHLKSEDTAMYLCVRDNPWFAYWGQGTLVTVST VL: DVLMTQTPLSLPVSLGDRASISCRSSQNIVHSNGNTYLEWFLQKPGQSPKLLIYKVSKRFSGVPDRFSGSGSGTDFTLKISRVEAEDLGVYYCFQGSHVPYTFGGGTKLEIK | – | 346 pM | 355 pM | 5570 pM
cAb004 (antibody, human IgG1, V domains shown, also called mAb004/cAb004) VH: EVQLQQSGAELVRPGASVKLSCTASGFNIKDDYIQWVKQRPEQGLEWIGWIDPENGDTEYASKFQDKATITSDTSSNTAYLQLSSLTSEDTAVYYCAATTFYASNYGFAYWGQGTLVTVSA VL: DVVMTQTPLSLPVSLGDQASISCRSSQSLVHSNGNTYLHWYLQKPGQSPQLLIYKVSNRFSGVPDRFSGSGSGTDFTLKISRLEAEDLGVYFCSQSTHVPYTFGGGTKLEIK | – | 168 pM | 255 pM | 311 pM
